The target of this test is integrin alpha(IIb)beta(3) (UniProt P08514). In words: cell-based or functional assay.

B1: trimucrin variant RR (protein)
chain: EAGEECDCGSPENPCCDAATCKLRPGAQCAEGLCCDQCRFKKKRTICRRAKGDRRDDRCTGQSADCPRNRLYG
For the molecule B1, the IC50: platelet aggregation worked out at 52.5 nM and the Ratio (RR/corresponding protein) of IC50 for platelet aggregation (ratio (RR/corresponding protein)) turned out to be 1.

Values taken from patent publication EP4592322A1.
